Experimental data as given in PMC7717453, “A study of Rose Bengal against a 2-keto-3-deoxy-D-manno-octulosonate cytidylyltransferase as an antibiotic candidate” (Journal of Enzyme Inhibition and Medicinal Chemistry, 2020).

Legend:
[1] = biological target: T1, BtKdsB (2-keto-3-deoxy-D-manno-octulosonate cytidylyltransferase) (Burkholderia thailandensis, UniProt Q2T0K3); assay: biochemical
T1 construct: gene kdsB; native KdsB with N-terminal tag MHHHHHH GGGGG

[2] = biological target: T2, PaKdsB (2-keto-3-deoxy-D-manno-octulosonate cytidylyltransferase) (Pseudomonas aeruginosa, UniProt Q9HZM5); assay: malachite green enzyme assay (IC50), inhibition kinetics; increased thermostability; assay type: biochemical
T2 construct: gene kdsB; native KdsB with N-terminal tag MHHHHHH EFSQQDSD
T2 sequence (Q9HZM5 1-254): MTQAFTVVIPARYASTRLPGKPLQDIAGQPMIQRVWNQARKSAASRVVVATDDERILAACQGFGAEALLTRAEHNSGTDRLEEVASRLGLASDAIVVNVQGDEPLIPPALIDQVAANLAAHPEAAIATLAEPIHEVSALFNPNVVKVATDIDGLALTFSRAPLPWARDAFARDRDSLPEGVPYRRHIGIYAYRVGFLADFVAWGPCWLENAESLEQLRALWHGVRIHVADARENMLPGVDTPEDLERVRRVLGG
Text: malachite green enzyme assay (IC50), inhibition kinetics; increased thermostability on PaKdsB (2-keto-3-deoxy-D-manno-octulosonate cytidylyltransferase) | The IC50 value determined from the dose-dependent inhibitory curve of Rose Bengal

[3] = tested on: Nc1ccn([C@@H]2O[C@H](COP(=O)(O)OP(=O)(O)OP(=O)(O)O)[C@@H](O)[C@H]2O)c(=O)n1; assay: purified protein
[4] = tested on: O=C(O)C(=O)C[C@@H](O)[C@@H](O)[C@H](O)[C@H](O)CO; assay: purified protein
[5] = substrate: O=C(O)C(=O)C[C@@H](O)[C@@H](O)[C@H](O)[C@H](O)CO; assay: steady-state kinetics (Km), malachite green assay; assay type: biochemical, Pseudomonas aeruginosa; settings: CTP ([…]), Mg2+ ([…] MgCl2) substrate binding site
[6] = substrate: Nc1ccn([C@@H]2O[C@H](COP(=O)(O)OP(=O)(O)OP(=O)(O)O)[C@@H](O)[C@H]2O)c(=O)n1; assay: steady-state kinetics (Km), malachite green assay; assay type: biochemical, Pseudomonas aeruginosa; settings: KDO ([…]), Mg2+ ([…] MgCl2) nucleotide binding site

T1 sequence (Q2T0K3 whole entry): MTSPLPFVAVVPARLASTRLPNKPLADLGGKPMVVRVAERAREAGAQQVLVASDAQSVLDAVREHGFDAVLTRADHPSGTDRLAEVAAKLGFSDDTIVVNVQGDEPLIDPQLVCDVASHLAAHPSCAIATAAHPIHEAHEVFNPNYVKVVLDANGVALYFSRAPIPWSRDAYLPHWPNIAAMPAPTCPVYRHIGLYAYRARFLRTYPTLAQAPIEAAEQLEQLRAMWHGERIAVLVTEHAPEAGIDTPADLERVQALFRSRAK

## O=C1OC2(c3cc(I)c(O)c(I)c3Oc3c2cc(I)c(O)c3I)c2c(Cl)c(Cl)c(Cl)c(Cl)c21 [Rose Bengal]
[1]
  IC50: 7.24 µM
[2]
  IC50: 14.7 µM

## BtKdsB (2-keto-3-deoxy-D-manno-octulosonate cytidylyltransferase) (Burkholderia thailandensis E264)
[3]
  Km: 123.9 ± 34 µM
  kcat: 0.142 ± 0.0193 s⁻¹
[4]
  Km: 56 ± 11 µM
  kcat: 0.116 ± 0.0062 s⁻¹

B1: PaKdsB (2-keto-3-deoxy-D-manno-octulosonate cytidylyltransferase) (Pseudomonas aeruginosa PAO1) (protein)
chain: T2 sequence (Q9HZM5 1-254)
notes: native KdsB with N-terminal tag MHHHHHH EFSQQDSD
[5]
  Km: 61 ± 11 µM
  kcat: 0.0758 ± 0.00383 s⁻¹
[6]
  Km: 98.3 ± 30 µM
  kcat: 0.132 ± 0.0184 s⁻¹
